Measured values from publication PMC11822739.
Values joined by “and” are separate entries in the source; they are usually repeats but may differ in a detail not shown here. Identical values can stand only once. Like-named read-outs stand apart in the source and are kept apart here.

How the values were obtained:
[1] = target: bovine thyroglobulin (bovine) (UniProt P01267); assay: SEC + native MS
[2] = target: bovine thyroglobulin (bovine) (UniProt P01267); assay: SEC + native MS; remark: listed apart in the source
[3] = target: HBV truncated core protein CP149 dimer (hepatitis B virus); assay: SEC + native MS
[4] = target: HBV truncated core protein CP149 dimer (hepatitis B virus); assay: SEC-MALS; SEC-UV-MALS-RI; 7.8 x 300 mm 1000 Å 3 μm column; 20 mM phosphate, 276 mM NaCl, 5.4 mM KCl, pH 7.4 (2x dPBS); flow rates 0.29 and 1.15 mL/min; 20 μL of 2 mg/mL Qβ, 14.4 μL of 0.67 mg/mL HBV VLPs with residual CP149 dimer; dn/dc 0.185 mL/mg
[5] = target: bacteriophage Qβ virus-like particles (bacteriophage Qβ); assay: as above

In the case of bovine thyroglobulin, P01267 20-2769, the stoichiometry N [1] is reported as 2 and the stoichiometry N [2] is reported as 4 and 3.

“HBV truncated core protein CP149 dimer (domain or fragment)” was tested, and the stoichiometry N [3] was 120 CP dimers and 90 CP dimers and the stoichiometry N [4] was 120 CP dimers and 90 CP dimers.

“bacteriophage Qβ virus-like particles (complex)” was tested, and the stoichiometry N (x the molar mass of peak 3) [5] was 4 and 2.
